Assay results taken from paper PMC11811016 (Nature Communications, 2025).

Target: T1, recombinant his-PGC-1α (mouse, UniProt O70343 1-797, labeled with red-tris-NTA 2nd generation His-tag labeling kit)
T1 sequence (looked up): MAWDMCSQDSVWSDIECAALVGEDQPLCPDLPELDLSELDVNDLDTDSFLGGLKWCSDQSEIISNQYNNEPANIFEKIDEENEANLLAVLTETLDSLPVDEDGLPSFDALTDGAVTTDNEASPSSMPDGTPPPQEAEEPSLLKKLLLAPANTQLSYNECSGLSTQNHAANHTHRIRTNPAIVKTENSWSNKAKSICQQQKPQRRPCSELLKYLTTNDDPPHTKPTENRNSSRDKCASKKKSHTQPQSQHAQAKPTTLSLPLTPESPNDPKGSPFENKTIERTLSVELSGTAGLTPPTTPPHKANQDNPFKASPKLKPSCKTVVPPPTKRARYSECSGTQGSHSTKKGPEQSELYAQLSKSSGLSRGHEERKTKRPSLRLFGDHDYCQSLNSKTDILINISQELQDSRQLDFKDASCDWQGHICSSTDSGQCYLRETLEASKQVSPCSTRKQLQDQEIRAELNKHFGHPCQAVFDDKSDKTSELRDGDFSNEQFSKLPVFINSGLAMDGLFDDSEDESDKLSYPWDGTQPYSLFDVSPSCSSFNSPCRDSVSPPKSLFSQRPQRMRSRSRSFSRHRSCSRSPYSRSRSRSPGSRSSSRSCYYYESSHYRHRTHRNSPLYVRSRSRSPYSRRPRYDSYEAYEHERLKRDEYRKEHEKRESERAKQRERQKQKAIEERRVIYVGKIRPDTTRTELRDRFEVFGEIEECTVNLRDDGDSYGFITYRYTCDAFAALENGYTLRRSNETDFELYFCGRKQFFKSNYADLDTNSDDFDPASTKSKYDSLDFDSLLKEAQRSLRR
Test: MST

Kd: 1730 nM
B1: purified KMT5C protein (his tag cleaved) (enzyme)
chain: not shown
